The values that follow come from patent publication US20220348651A1 (Novartis, published 2022).

Values joined by “and” are separate entries in the source; they are usually repeats but may differ in a detail not shown here. Identical values can stand only once.

The target of test [1] is human FcγRIIIa, V158 (high affinity variant) on engineered Jurkat cells (human, UniProt P08637 17-254). The test can be described thus: cell-based or functional assay.
Test [2] addresses recombinant human ENTPD2 extracellular domain (residues 29-462) with C-terminal Avi-His6 tag (human, UniProt Q9Y5L3 29-462, biotinylated on the AviTag in the epitope binning assay). The test can be described thus: cell-based or functional assay.
For the next test, the target named is T1, ENTPD3 of H520 cells (UniProt O75355 1-529, limits assumed).
T1 construct: whole, on cells
T1 sequence (looked up): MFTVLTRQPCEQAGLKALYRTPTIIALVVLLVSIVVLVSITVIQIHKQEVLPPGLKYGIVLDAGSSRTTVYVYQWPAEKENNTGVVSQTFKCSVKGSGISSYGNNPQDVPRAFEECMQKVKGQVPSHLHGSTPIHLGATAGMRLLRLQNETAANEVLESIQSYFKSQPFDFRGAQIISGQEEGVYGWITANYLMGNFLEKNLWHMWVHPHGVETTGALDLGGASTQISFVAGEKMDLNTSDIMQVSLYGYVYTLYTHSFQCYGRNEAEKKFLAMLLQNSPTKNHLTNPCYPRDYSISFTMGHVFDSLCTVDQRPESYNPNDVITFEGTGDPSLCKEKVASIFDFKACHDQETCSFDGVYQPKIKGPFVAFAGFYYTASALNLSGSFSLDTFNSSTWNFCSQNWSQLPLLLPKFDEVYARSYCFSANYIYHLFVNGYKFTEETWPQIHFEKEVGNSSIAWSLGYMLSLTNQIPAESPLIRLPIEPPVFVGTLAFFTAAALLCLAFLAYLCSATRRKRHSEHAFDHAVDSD
Kind of test: flow cytometry, H520 cells. (A flow cytometer gives signals particle by particle.)

For the next test, the target named is T2, ENTPD8 of H520 cells (UniProt Q5MY95 1-495, limits assumed).
T2 construct: whole, on cells
T2 sequence (looked up): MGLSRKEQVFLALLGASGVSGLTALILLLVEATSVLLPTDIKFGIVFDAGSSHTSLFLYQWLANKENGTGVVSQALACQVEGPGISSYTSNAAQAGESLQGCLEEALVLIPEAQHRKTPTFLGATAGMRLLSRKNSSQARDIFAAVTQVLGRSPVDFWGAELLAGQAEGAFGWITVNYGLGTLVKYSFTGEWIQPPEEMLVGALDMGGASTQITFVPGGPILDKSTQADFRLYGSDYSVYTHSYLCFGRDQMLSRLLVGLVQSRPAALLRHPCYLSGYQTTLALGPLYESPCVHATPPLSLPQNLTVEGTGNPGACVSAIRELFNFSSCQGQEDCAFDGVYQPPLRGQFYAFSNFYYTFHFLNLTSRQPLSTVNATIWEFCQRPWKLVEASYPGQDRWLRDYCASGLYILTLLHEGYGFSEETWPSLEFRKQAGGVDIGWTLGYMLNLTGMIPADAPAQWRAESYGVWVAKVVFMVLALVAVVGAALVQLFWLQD
Kind of test: flow cytometry, H520 cells.

Test [3] concerns the target T3, Human ENTPD1 (NP_001767) expressed on NIH/3T3 cells (human, UniProt P49961 1-510).
T3 construct: also called NIH/3T3-ENTPD1; CD39
T3 sequence: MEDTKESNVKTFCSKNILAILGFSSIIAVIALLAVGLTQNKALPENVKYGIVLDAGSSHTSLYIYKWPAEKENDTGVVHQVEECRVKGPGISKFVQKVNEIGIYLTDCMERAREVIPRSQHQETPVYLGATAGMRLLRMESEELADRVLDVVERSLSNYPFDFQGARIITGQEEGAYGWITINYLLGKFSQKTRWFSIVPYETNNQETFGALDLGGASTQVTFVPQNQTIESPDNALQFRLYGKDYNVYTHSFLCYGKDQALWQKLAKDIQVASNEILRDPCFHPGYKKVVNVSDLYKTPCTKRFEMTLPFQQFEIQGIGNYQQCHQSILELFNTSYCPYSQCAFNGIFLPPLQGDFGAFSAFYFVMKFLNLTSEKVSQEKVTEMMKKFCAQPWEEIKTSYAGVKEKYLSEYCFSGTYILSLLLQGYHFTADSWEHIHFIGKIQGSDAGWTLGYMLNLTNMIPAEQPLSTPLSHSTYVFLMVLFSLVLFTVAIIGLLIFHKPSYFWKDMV
Kind of test: flow cytometry, NIH/3T3-ENTPD1 cells.

For test [4], the target named is T4, cyno ENTPD2 expressed on NIH/3T3 cells (cynomolgus macaque, UniProt Q9Y5L3 1-495 (human entry)).
T4 construct: also called NIH3T3 cynoENTPD2; Cyno ENTPD2 NIH/3T3
T4 chain: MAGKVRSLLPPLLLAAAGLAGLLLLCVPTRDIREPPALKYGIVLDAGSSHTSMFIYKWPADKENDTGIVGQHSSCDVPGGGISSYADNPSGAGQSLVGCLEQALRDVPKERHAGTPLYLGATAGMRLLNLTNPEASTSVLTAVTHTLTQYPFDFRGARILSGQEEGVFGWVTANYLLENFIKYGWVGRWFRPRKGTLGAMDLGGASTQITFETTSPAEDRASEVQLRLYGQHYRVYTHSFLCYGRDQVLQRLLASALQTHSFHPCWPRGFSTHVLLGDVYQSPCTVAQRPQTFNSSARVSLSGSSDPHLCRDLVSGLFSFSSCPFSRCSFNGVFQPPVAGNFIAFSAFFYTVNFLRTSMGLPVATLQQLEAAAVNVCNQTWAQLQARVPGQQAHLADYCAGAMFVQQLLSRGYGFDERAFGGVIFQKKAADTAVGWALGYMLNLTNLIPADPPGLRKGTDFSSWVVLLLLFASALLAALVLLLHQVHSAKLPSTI
The test can be described thus: flow cytometry, NIH3T3 cyno ENTPD2 cells.

Chain of human FcγRIIIa, V158 (high affinity variant) on engineered Jurkat cells (P08637 other isoform, or with tags, fused parts or gaps mutant limits assumed): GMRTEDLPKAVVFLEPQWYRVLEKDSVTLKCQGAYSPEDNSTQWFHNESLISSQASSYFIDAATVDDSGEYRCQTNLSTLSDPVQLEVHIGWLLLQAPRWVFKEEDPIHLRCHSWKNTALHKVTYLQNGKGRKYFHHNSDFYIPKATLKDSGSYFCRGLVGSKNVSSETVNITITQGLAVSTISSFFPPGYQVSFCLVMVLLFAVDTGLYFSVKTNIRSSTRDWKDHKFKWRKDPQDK
Chain of recombinant human ENTPD2 extracellular domain (residues 29-462) with C-terminal Avi-His6 tag (Q9Y5L3 29-462): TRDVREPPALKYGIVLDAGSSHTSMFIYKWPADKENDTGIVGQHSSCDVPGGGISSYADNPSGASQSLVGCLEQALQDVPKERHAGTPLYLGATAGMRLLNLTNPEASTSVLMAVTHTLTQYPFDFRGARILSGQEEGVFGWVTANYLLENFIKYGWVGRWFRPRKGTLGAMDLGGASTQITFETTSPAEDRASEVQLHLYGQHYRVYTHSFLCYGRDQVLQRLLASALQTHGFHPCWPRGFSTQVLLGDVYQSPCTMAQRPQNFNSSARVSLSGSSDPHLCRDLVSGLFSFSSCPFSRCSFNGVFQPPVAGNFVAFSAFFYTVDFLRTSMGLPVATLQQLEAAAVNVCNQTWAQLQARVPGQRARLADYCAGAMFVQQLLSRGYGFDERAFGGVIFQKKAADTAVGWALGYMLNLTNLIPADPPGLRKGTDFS

B1: ANTI-HUMAN ENTPD2 MAB1 (antibody, human IgG1, kappa)
heavy: not shown
light: DIQLTQSPSSLSASVGDRVTITCSASSSVSYIHWFQQKPGKAPKLLIYSTSNLASGVPSRFSGSGSGTFFTLTISSLQPEDFATYFCHQWSSYPWTFGQGTKVEIKRTVAAPSVFIFPPSDEQLKSGTASVVCLLNNFYPREAKVQWKVDNALQSGNSQESVTEQDSKDSTYSLSSTLTLSKADYEKHKVYACEVTHQGLSSPVTKSFNRGEC
notes: humanized from mAb17; human IgG1, kappa; also called anti-ENTPD2 mAb1
For the molecule B1, in test [1], the “EC50, Jurkat FcγRIIIa V158 NFAT-luciferase reporter with RKO cells” value was 17.3 nM and 2.55 µg/mL. The “IC50, ENTPD2 Biochemical Assay at 1 uM ATP” value in test [2] was found to be 0.52 nM. The binding result (in the test with ENTPD3 of H520 cells; with ENTPD8 of H520 cells; in test [3]) was “no binding (tested: 50 nM)” in each case. Besides, the EC50 (commonly the concentration needed to bring the measured effect to its halfway point) in test [4] was found to be 3.3 nM.
